# Assay results: the nanobody polyreactivity screen of Harvey et al. (2022)
# Assay: yeast display, Sf9 membrane polyspecificity reagent, FACS + sequencing; frameworks hold sequencing errors
# Method in brief: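 Using colony PCR, genes from sorted yeast display clones were amplified, then sequenced on MiSeq at 2 × 250 and filtered by CDR length. The clones had been stained with 10% biotinylated, detergent-solubilized Sf9 membrane reagent for 1 hour at 4 °C and sorted by FACS into low and high (top ~1%) gates on anti-HA and streptavidin fluorescence. Polyreactivity labels come from the gate of origin.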
row,Sequence,polyreactivity (PSR sort gate)
1,QVQLVESGGGLVQAGGSHRLSCAASGRTFSGYAMGWYRQAPGKERELVAAISFSGGSTYYADSVKGRFTISRDNAKNTVYLQMNSLKPEDTAVYYCAAEFVRQNYEMDYWGQGTQVTVSS,low polyreactivity
2,QVQLVESGGGKVQAGGSLRLICAASGSTFTYNTMGWYRQAPGKERELVAAISSGGSTYYADSVKGRFTISRDNAKNTVYLQLNSLNPVDTAVYYCAATAQKYSRYGSRYYYWGQGTQVTVSS,high polyreactivity
3,QVQLVESGGGLVQAGGSLRLSCAGSGITFVAYAMGWYRQAPGKDRELVAAISGGGGSTYYADSVKGRFTISRDNAKNTVYLQMNSLKPEDTAVYDCNAEPYTSSGGYRGYDFDYWGQGTQVTVSS,low polyreactivity
4,QVQLVESGGGLVQAGGRLRLSCAASGRIFFRNTMGWYRQEPGKERQLVAAISGSGGSKYYADSVKGRFTISRDNAKNTVYLQMNSLKPEDTAVYYCAKRWLYPISYDYWGQGTQVTVSS,high polyreactivity
5,QVQLVESGGGLVQAGGSLRLSCAASGTIFTNAMGCYRQEPGKERQLVAAISSSGGSTYYADSVKGRFTISRDNAKNTVYLQMNSLKPEDTAVYYCAADGEVSLWTGYDYDYWGKGTQVTVSS,low polyreactivity
6,QVQLVESGGGLVQAGGSLSLSCAASGRTFASNAIGWYRQAPGKERELVAAISSAGGTNYADSVKGRFTISRDNAKNTVYLQMISLKPEDTAVYYCAAASPYYSYHRYIYYYWGQGTQVTVSS,high polyreactivity
7,QVQLVESGVGLVQAGGSLSLSCASSGFIFSANDMGWYRPAPGKERELVADIDSSGRTNYADSVKGRVTISRDNAKNTVYLQMNSLKPEDTAVYYCATPPDDTGGGYRGYDYWGQGTQVTVSS,low polyreactivity
8,QVQLVESRGGLVQAGCSLRLRCAASGYIFYGYDKGWYRPAPGKERELVAGITYSGGGGTHYADSVKGRFTISRDNAKNTVYLQMNSLKQEDRGVYYCAKADPQLNRTYYSYGMDSWGQGTQVTVSS,low polyreactivity
9,HVQLVESGGGLVQAGGSLRLSCAASGSIFKRYAMGWYTQAPGKERELVAAITSGGSTNYADSVKGRFTISRDNAKNTVYLQMNSLKPEDTAVYYCAAEHDYYPSNLDYWGQGTQVTVSS,low polyreactivity
10,QVQLVESGGGLVQAGGSLRLSCAASGRIFAYYAMGWYRQAPGQERELVATITGGGDRTYYADSVKGRFTISRDNAKNTLYLQMNSLKPEDTAVYYCNARVWYYSPYYYWGQGTQVTVSS,low polyreactivity
11,QVQLEESGGGLVQAGGSLRLSCAASGRIFVTNAMGWSRQAPGKERELVADITSGGSTNYADSVKGRFTISRDNAKNTVYLQMNSLKPEDTAVYYCAARFTPYITSDDGHYDYWGQGTQVTVSS,low polyreactivity
12,QVQLVESGGGLVQAGGSLRLRCAASGRTFIVYAMGWYRQAPGKERELVARISSGSRTSYADSVKGRFTISRDNAKNTVYLQMNSLKPEDTAVYYCAKSRVIKYEFDYWGQGTEVTVSS,low polyreactivity
13,QVQLVESGGGLVQAGGRLRLSCAASGRTFYYYAMGWYRQAPGKERELVASITYRGTRTNYADSVKGRFTISRDNAKNTVYLQMNILKPEDTAVYSCNAEVYTGYGYWGQGTQVTVSS,high polyreactivity
14,QVQLVESGGGLVQAGGSLRLSCAASGSIFKYYVMGWYRQAPGKERELVAAISSGGGSTYYADSVKGRFTISRDNAKNTVYLQMNSLKPEDTAVYYCNKKYRSRWQGPFDYWGQGTQVTVSS,high polyreactivity
15,QVQLVESGGGLVQAGGSLRLSCAASGRTFVGYAMGWYRQAPGKERELVASITASGGRTYYADSVKGRFTISRDNAKNTVYLQMNSLKPEDTAVYYCAAYIHWSEDYWGQGTQVTVSS,low polyreactivity
16,QVQLVESGGGLVQAGGSLRLSCAASGSTFNNYGMGWYTQAPGTERELVAAITKSGGITYYADSVKGRFTISRDNAKNTVYLQMNRLKREDTAVYYCAAAYTIYWFSYRVLYYYWGQGTQVTVSS,low polyreactivity
17,QVQLVESGGGLVQAVRSLRLSCAASGFTFNGNAMGWYRQAPGKDRELVAAISYSGGSTYYADSVKGRFTISRDNAKNTVYLQMNSLKPEDTAVYYCAADRTAYSVRAYTKDHSGHDYWGQGTQVTVSS,low polyreactivity
18,QVQLVESGGGLVQAGGSLRLSCAASGSIFGGNAMGWYRQAPGKERELVAAITSTVSTNYADSVKGRFTISRDNAKNTVYLQMNSLKPEVTAVYYCATDSSNVEGDYWGQGTQVTVSS,low polyreactivity
19,QVQLVESGGGLLQAGGSLRLSCAASGRIFIANAMGWNRQAPRKERDLVAAITSDGGTNYADSVKGRFTISRDNAKITVYLQLISLKPEDTAVYYCAATYQIGYYYVWEYDYWGQGTQLTVSS,low polyreactivity
20,QVQLVDSGGGLVQAGGTLRLSCAASGSTLYFYAMGWYRLAPGKERELVAAITYIGGRTSYADSVKGRFTISRDNAKNTVYLQMNSLKPEDTAVYYCAAAPYGYRRYEYWGQGTQVTVSS,high polyreactivity
21,QVQLVESGGGLVQAGGSLRLSCAASGLTFVGYAMGWNRQAPGKERELVAAISGVGTTNYGDSVKGRFTISRDNAKNTVYLQMNSLKPEDTAVYYCAKAPYPVPYGLYDYWGQGTQVTVSS,low polyreactivity
22,QVQLVESGGGLVQAGGSLRLSCAASGRTLTGNAMGWYRQAPGKERELVAVISYSGTNTRYADSVKGRFTISRDNAKNTVYLQMNSLKPEDTAVYYCAARRPAPNYSSRYDYWGQGTQVTVSS,high polyreactivity

row,Sequence,polyreactivity (PSR sort gate)
1,QVQLVESGGGLVQAGGSLRLSCAASGFIFSLYAMGWYRQAPGKERELVGAITRSGGSTYYADSVKGRFTISRDNAKNTVYLQMNSLKAEDTAVYYCAVSACYHYNYWGQGTQVTVSS,high polyreactivity
2,QVQLVESGGGLVQAGGSLRLSCAASVYTSSLNAMGWYRQAPGKERELVARITTDGTSTYYADSVKGRFTISRDNAKNTVYLQMNSLKPEDTAVYYCNARYPAYGVRSWYPYAYYYWGQGTQVTVSS,low polyreactivity
3,QVQLVESGGGLVQAGGSLRISCAASGRIFHGNARGWYRPAPGKERELVAAITSGGRTFYADSVKGRFTISRDNAKNTVYLQLHSLKPEDTAVYYCNAPSIAGYAEYNSHDYWGHGTQVTVSS,high polyreactivity
4,QDQLVESGGGLVQAGGSLRLSCAASGSIFYYYVMGWYRQETGKEREFVAAISWGGDSTYYADSVKGRFTISRDNAKNTVYLQMNSLKTEDTAVYYCKADYPWSVLAYDYWGQGTQVTVSS,low polyreactivity
5,QVQLVESGGGLVQAGGSLRLSCASSGRSLSVYAMGRYRQAPGKERDLVADITWRGGSTYYADSVKGRFTISRDNAKNTVYLQMNSLKPEDTAVYYCAAADSTWFDWGNYWYYYWGQGTQVSVSS,low polyreactivity
6,QVQLVESGGGLVQAGGSLRLSCAASGRIFAYNAMGWYREAPGKERELVASITSGGGRTYYADSVKGRFTISRDNAKNTVYLQMNSLKPEDTAVYYCNVDVSLSKFGSVLYDYWGQGTQVTVSS,low polyreactivity
7,QVQLVESGGGLVQAGGSLRLSCAASGRTFQANAMGWYRQAPGTERELVAAITGRGGTTYYADSVKGRFTISRDTAKNTVYVQMYSLKPEDTAVYYCALALSGYGFWGYDYWGLGTQVTVSS,low polyreactivity
8,QVQLVESGGGLVQAGGSLRLSCAASGRIFGVYAMGWYRQAPGKERQLVAAITARGGSTYYADSVKGRFTISRDNAKNTVYLQMNSLKPEDTAVYYCATRLYKRTRTITYGYWGQGTQVTVSS,high polyreactivity
9,QVQLVESGGGLVQAGGSLRLSCAASGSIFWRNAMGWYRQAPGKERELVAAITSGGSTYYADSVKGRFTISRDNAKNTVYLQMNSLNPEDTAVYYCAAGYSYRYGYWGQGTQVTVSS,low polyreactivity
10,QVQLVESGGGLVQAGGSLRLSCAASGSIFVQYALGWYRQAPGKERELVAAISQRGGSTYYADSVKGRFTISRDNAKNTVYVQMNSLKPADTAVYYCRPYPPSYYVTFGYGYWGQGTQVTVSS,high polyreactivity
11,QVQLVESGGGLVQAGGSLRLSCAASGFTFLYNVMGWYRQAPGKERELVAAISQSGTDTYYADSVKGRFTISRDNAKYTVYLQMNSLKPEDTAVYYCAVDVYFYYRHYGYWGQGTQVTVSS,low polyreactivity
12,QVQLVESGGGLVQAGGSLRLSCAASGIIFTSYAMGWYRQAPGKERELVAVITGTGGITYYADSVKGRFTISRDNAKNTVYLQMNSLKPEDTAVYYCAAELELREYDYWGQGTQVTVSS,high polyreactivity
13,QVQLVESGGGLVQAGGSLRLSCAASGYIFFRNAMGWSRQAPGKEREFVADIRFSGGNTYYADSVKGRFTISRDNAKNTVYFQKISLKPEDTAVYYCSADLVYTYAYDYWGQGTQVTVSS,low polyreactivity
14,QVQLVESGGGLVQAGGSLRLSCAASGFIFSYLYAMGWYRQAPGKERELVAAITYNGGSTYYADSVKGRFTISRDIAKNTVYLQMNSLKPEDTAVYYCAARKRYRANSYWEMAYWGQGTQVTVSS,high polyreactivity
15,QVQLVESGGGLVQAGGRLRLSCAAAGRTFVLYVMGWYRQAPRKEREFVADINAGGGSTYYADSVKGRFTMSRDNAKNTVYLQMNSLKAEDTAVYYCAASYVRGWKHSLDDYWGQGTQVTVAS,low polyreactivity
16,QVQLVESGGGLVQAGGSLRLSCAASGLIFVSYAMGWYRQAPGKERELVAAISSGGSTYYADSVKGRFTISRDNAKNTVSLQMTSLKPEDTAVYYCNADGFYSWLYDYWGQGTQVTVSS,low polyreactivity
17,QVQLVESGGGLVQAGGSLRLSCAASGSTFSFNDRGWYRQAPGKERELVADISCSGDTTYADSVKGRFTISRDNAKNTVYLQMKSLKPEATAVYYCAARQYFRNYVYWGQGTQVTVSS,high polyreactivity
18,QVQLVESGGGLVQAGGSLRLSCAASGSTFQSYAMGWYRQAPGKERELVARIRNSGGSTYYADSVKGRFTISRDNAKNTVYLQMNSLKPEDTAVYYCNARYVSRYLTYQYDYWGQGTQVTVSS,high polyreactivity
19,QVQLVESGGGLGQAGGSLRLSCAASGFTFPWYAMGWYRPAPGKERELVASISYRGDSTYYADSVKGRFTISRDNAKNTVYLEMNSLKPEDTAVYYCNNSLASYYLPGFDYWGQGTQVTVSS,low polyreactivity
20,QVQLVESGGGLVQAGGSLRLSCAASGSTFLDNAMGWYRQAPGKERELVAAISSDGSTYYANSVKGRFTISRDNAKNTVYIQMNSLKPEDTAVYYCAAEYRYYGFWYDYWGQGTQVTVSS,high polyreactivity
21,HVQLVESGGGLVQAGGSLRLSCAASGIIFYQYAMGWYRQAPGKERELVATISSNGGATYADSVKGRFTISRDNAKNTVYLQMNSLKPEDTAVYYCNAGGRYHAPSGDYWGQGTQVTVSS,low polyreactivity
